Assay [1] addresses T1, 人源OX40的胞外区与人Fc融合蛋白(OX40-hFc) (human, UniProt P43489 29-214).
T1 construct: extracellular domain; Coated on ELISA plates at 2 μg/mL; not shown: human Fc
T1 sequence (looked up): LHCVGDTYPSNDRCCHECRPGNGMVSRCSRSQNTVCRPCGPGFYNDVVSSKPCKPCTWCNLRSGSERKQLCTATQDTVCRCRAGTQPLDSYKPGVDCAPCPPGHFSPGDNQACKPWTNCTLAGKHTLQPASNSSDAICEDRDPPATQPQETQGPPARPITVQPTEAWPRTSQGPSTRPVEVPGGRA
Nature of the assay: ELISA on coated OX40-hFc (Fig. 1). Background: An ELISA detects its analyte on a solid surface through an enzyme-linked reagent.

The target of assay [2] is T2, 人OX40 (Jurkat-OX40细胞) (human, UniProt P43489 29-277).
T2 construct: whole, on cells; also called OX40受体; CD134
T2 sequence (looked up): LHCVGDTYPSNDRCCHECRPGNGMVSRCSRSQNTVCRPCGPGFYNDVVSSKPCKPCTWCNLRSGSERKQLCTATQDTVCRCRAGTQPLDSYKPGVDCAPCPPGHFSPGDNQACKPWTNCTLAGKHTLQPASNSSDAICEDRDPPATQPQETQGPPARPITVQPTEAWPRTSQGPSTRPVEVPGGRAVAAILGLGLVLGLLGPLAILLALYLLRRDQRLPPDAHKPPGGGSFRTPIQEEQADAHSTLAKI
Nature of the assay: FACS on Jurkat-OX40 cells (Fig. 3).

Assay [3] deals with T2, 人OX40 (Jurkat-OX40细胞). Nature of the assay: FACS on Jurkat-OX40 cells (Fig. 9).
The target of assay [4] is T3, 人源OX40的胞外区与小鼠Fc融合蛋白(OX40-ECD-mFc) (human, UniProt P43489 29-214).
T3 construct: extracellular domain; also called OX40-mFc; not shown: mouse Fc
T3 sequence (looked up): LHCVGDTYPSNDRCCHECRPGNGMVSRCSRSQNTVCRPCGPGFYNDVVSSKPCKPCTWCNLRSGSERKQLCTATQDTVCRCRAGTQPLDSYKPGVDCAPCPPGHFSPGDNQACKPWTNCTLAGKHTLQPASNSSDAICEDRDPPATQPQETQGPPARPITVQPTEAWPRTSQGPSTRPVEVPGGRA
As to the kind of experiment: ELISA on OX40-mFc (Fig. 7).

B1: 抗人OX40鼠源抗体3F5 (antibody, V domains shown)
VH: EVQLVESGGDLVRPGGSLKLSCAASGFTFGSYAMSWVRQSPEKRLEWVAEISSGGIYTYYADIVTGRFTTSRDNAKNTLYLEMSSLRSEDTAMYYCVRDFDYRFAYWGQGTLVTVSA
VL: DIQMTQTTSSLSASLGDRVTISCKSSQEISGYLAWLQQKPDGTVKRLIYAASSLDVGVPSRFSGSRSGSDYSLTISNLEPEDIATYYCFQYASYPYTFGGGTKLEIK
notes: Mouse hybridoma antibody purified by Protein A
Take B1: the binding result (in assay [1]; with 人OX40 (Jurkat-OX40细胞) [2]) was “binds” in each case.

B2: 抗人OX40人源化抗体3C9 (antibody, IgG1, V domains shown)
VH: QVQLVQSGAEVKKPGASVKVSCKASGYTFTSYIMHWVRQAPGQGLEWIGYINPYNGGSRYNDKFKVRATLTSDKSISTAYMELSRLRSDDTAVYYCARGDYDDGAWFGYWGQGTTVTVSS
VL: DIVMTQSPLSLPVTPGEPASISCKSSQSLLHSNGITYLFWYLQKPGQSPQLLIYRMSNRASGVPDRFSSSGSGTDFTLKISRVEAEDVGVYYCGQNLELPVTFGQGTKLEIK
notes: expressed in 293 cells; also called hu3C9; hu3C9-hIgG1
As to B2, the binding result (in the assay with 人OX40 (Jurkat-OX40细胞) [3]; in assay [4]) was “binds” throughout.

B3: 抗人OX40鼠源抗体3C9 (antibody, V domains shown)
VH: DVQLQQSGPELVKPGASVRMSCKASGYTFTSYIMHWVKQKPGQGLEWIGYINPYNGGSRYNDKFKVKATLASDKSSSTAYMELSSLTSADSAVYYCARGDYDDGAWFGYWGQGTLVTVSA
VL: EIQMTQAAPSVPVTPGESVSISCKSSQSLLHSNGITYLFWYLQRPGQSPQLLIYRMSNRASGVPDRFSSSGSGTAFTLKISRVEADDVGVYYCGQNLELPVTFGAGTKVELK
notes: as for B1
For the molecule B3, the binding result (in assay [1]; in the assay with 人OX40 (Jurkat-OX40细胞) [2]) was “binds” in each case.

B4: 抗人OX40人源化抗体1A2 (antibody, V domains shown)
VH: QVTLKESGPTLVKPTQTLTLTCTFSGFSLATSGVAVGWIRQPPGKALEWLAHIWWDDVKRYNPSLQGRLTITKDTSKNQVVLTMTNMDPVDTATYYCARMDWDGLAYWGQGTLVTVSS
VL: EIVLTQSPATLSLSPGERATLSCSVSSSISSSNLHWYQQKPGQAPRPWIYGTSNLATGIPARFSGSGSGTDYTLTISSLEPEDFAVYYCQQYSSYPFTFGGGTKVEIK
notes: expressed in 293 cells; also called hu1A2; 1A2人源化抗体
B4: the binding result (in the assay with 人OX40 (Jurkat-OX40细胞) [3]; in assay [4]) was “binds” in each case.

B5: 抗人OX40人源化抗体15A7 (antibody, IgG1, V domains shown)
VH: QVQLQESGPGLVKPSETLSLTCTVSGYSITSDYWNWIRQPPGKGLEYMGYISYSGSTSYNPSLKSRITISRDTSKNQYSLKLSSVTAADTAVYYCARGGYYYGSSYPYYFDYWGQGTLVTVSS
VL: DIQMTQSPSTLSASVGDRVTITCKASQNVGTAVAWYQQKPGKAPKLLIYSPSNRYTGVPSRFSGSGSGTEFTLTISSLQPDDFATYYCQQYSSYRTFGGGTKVEIK
notes: expressed in 293 cells; also called hu15A7; hu15A7-hIgG1
As for B5, the binding result (with 人OX40 (Jurkat-OX40细胞) [3]; in assay [4]) was “binds” throughout.

B6: 抗人OX40鼠源抗体1A2 (antibody, IgG1, V domains shown)
VH: EVQLKESGPGIVQPSQSLSLTCTFSGFSLATSGVAVGWIRQPSGKGLEWLAHIWWDDVKRYNPSLQGRLTISKDTASSQVFLKISSVDTADTATYYCARMDWDGLAYWGAGTTVTVSA
VL: EIVLTQSPALMAASPGEKVTITCSVSSSISSSNLHWYQQKSETSPKPWIYGTSNLATGVPVRFSGSGSGTSYSLTISSMEAEDAATYYCQQYSSYPFTFGGGTKLEIK
notes: Mouse hybridoma antibody purified by Protein A; also called 1A2-mIgG1
On to B6, for which the binding result (in assay [1]; in the assay with 人OX40 (Jurkat-OX40细胞) [2]) was “binds” throughout.

B7: 抗人OX40鼠源抗体3D9 (antibody, V domains shown)
VH: QVQLQESGPGLVAPSQSLSITCTVSGFSLTTYGITWVRQPPGKGLEWLGVIWDDGSTNYHSALISRLSISKNNYKSQVFLTLNSLQTDDTATYYCAKLLPYYFDSWGQGTTLTVSS
VL: DIVMTQSPSSLSASLGDRVTISCRASQDISNYLNWYQQKPNGTVKLLIYYTSRLLSGVPSRFSGSGSGTDYSLTISSLEQEDIATYFCQQGYTLPPTFGGGTKLEIK
notes: as for B1
For B7, the binding result (in assay [1]; with 人OX40 (Jurkat-OX40细胞) [2]) was “binds” each time.

B8: 抗人OX40鼠源抗体17C1 (antibody, V domains shown)
VH: DVQLQESGPGLVKPSQSLSLTCTVTGYSITSDYAWNWIRQFPGNKLEWMGYITYSGFTRYNPSLKSRFSITRDTSKNQFFLQLNSVTTEDTATYYCVYPAWFAYWGQGTLVTVSA
VL: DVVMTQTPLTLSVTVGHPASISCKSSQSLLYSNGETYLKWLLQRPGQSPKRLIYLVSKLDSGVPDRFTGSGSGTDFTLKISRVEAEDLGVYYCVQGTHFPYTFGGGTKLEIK
notes: as for B1
For B8, the binding result (in assay [1]; with 人OX40 (Jurkat-OX40细胞) [2]) was “binds” throughout.

B9: 抗人OX40鼠源抗体1G4 (antibody, V domains shown)
VH: RVQLVQSGPELKKPGETVKISCKASGYTFTDYSIHWVKQAPGKGLKWMGWINTETGESTYADDFKGRFVFSSEISATTAYLQINSLKNEDTSTYFCAWVPPWYFDVWGAGTTVTVSS
VL: DIVMTQSTTSLSVSLGDRVTINCRTSQDITNYLNWYQQKPDGTIKLLIYYTSMLKSGVPSRFSGSGSGTDYSLTISHLEQDDIATYFCQQGNTPPLTFGAGTKLELK
notes: as for B1
With B9, the binding result (in assay [1]; with 人OX40 (Jurkat-OX40细胞) [2]) was “binds” in each case.

B10: 抗人OX40人源化抗体3F5 (antibody, IgG1, V domains shown)
VH: EVQLVESGGGLVQPGGSLRLSCAASGFTFGSYAMSWVRQAPGKGLEWVAEISSGGIYTYYADIVTGRFTTSRDNAKNSLYLQMNSLRAEDTAVYYCVRDFDYRFAYWGQGTLVTVSS
VL: DIQMTQSPSSLSASVGDRVTITCKSSQEISGYLAWLQQKPGKAPKRLIYAASSLDVGVPSRFSGSRSGSEYTLTISSLQPEDFATYYCFQYASYPYTFGQGTKLEIK
notes: expressed in 293 cells; also called hu3F5; hu3F5-hIgG1
As to B10, the binding result (with 人OX40 (Jurkat-OX40细胞) [3]; in assay [4]) was “binds” throughout.

B11: 抗人OX40鼠源抗体15A7 (antibody, V domains shown)
VH: QVQLQQSGPGLAKPSQTLSLTCSVTGYSITSDYWNWIRKFPGNKLEYMGYISYSGSTSYNPSLKSRISITRDTSKNQYYLQLSSVTTEDTATYYCARGGYYYGSSYPYYFDYWGQGTTLTVSS
VL: DIVMTQSTKFMSTTVGDRVSITCKASQNVGTAVAWYQQKPGQSPKLLIYSPSNRYTGVPDRFTGSGSGTDFTLTITNVQSEDLADYFCQQYSSYRTFGGGTKLEIK
notes: as for B1
Regarding B11, the binding result (in assay [1]; with 人OX40 (Jurkat-OX40细胞) [2]) was “binds” each time.

B12: 抗人OX40鼠源抗体9G7 (antibody, V domains shown)
VH: EVKLVESGGGLVQPGGSLKLSCAASGFTFSDYYMYWVRQTPEKRLEWVAYISNGDISTYYPDTVKGRFTISRDNAKNTLYLQMSRLKSEDTAMYYCARDDGYSAWFAYWGQGTLVTVSA
VL: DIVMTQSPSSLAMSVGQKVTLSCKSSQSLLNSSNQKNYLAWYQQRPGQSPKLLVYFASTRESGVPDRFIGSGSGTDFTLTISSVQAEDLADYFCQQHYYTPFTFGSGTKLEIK
notes: as for B1
For the molecule B12, the binding result (in assay [1]; in the assay with 人OX40 (Jurkat-OX40细胞) [2]) was “binds” each time.

Source of the values: patent CN112574312A (DONGDA BIOTECHNOLOGY SUZHOU CO LTD, dated 2021).
